Target: the molecule itself
Test: crystal structure

B1: WlbB, an N-acetyltransferase from Bordetella petrii (enzyme, UniProt A9IH93 1-190, looked up)
chain: MATIHPTAIVDEGARIGAHSRIWHWVHICGGAEIGEGCSLGQNVFVGNRVRIGNRVKIQNNVSVYDNVFLEDDVFCGPSMVFTNVYNPRAAIERKSEYRDTIVRQGATLGANCTVVCGATIGRYAFVGAGAVVNKDVPDFALVVGVPARQIGWMSRHGEQLDLPLRGNAEATCPHTGERYILTDGVCRLA
- stoichiometry N: 3

Reference: article PMC2879449 (Biochemistry, 2010)
